{"source": "the nanobody polyreactivity screen of Harvey et al. (2022)"}
{"test": "yeast display, Sf9 membrane polyspecificity reagent, FACS + sequencing; frameworks hold sequencing errors", "method_in_brief": "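Nanobodies came from a synthetic yeast display library in Saccharomyces cerevisiae BJ5465, induced with galactose for 36–48 hours and stained for 1 hour at 4 °C with 10% biotinylated, detergent-solubilized Sf9 membrane reagent. Cells were enriched on streptavidin microbeads and then FACS-sorted, with low and high (top ~1%) gates set on anti-HA fluorescence for expression and streptavidin fluorescence for reagent binding. Each polyreactivity label reflects the gate a clone came from. Genes were amplified by colony PCR, sequenced by MiSeq 2 × 250 and filtered by CDR length.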"}
{"sequence": "QDQLVESGGGLRQAGGSLRLSCAASGPTFFVYAMGWYTQAPGKERELVAAISWNGGSTFYADSVKGRFTISRDNAKNTVYIQMNSLNPEDTAVYYCAAVESRGWGGYGYWGQGTQVTVSS", "polyreactivity (PSR sort gate)": "high polyreactivity"}
{"sequence": "QDQLVESGGGLVHAGCSLRLSCAASGRTFYGNAMGWYRQAPGKERELVAGITRGGSTYYADSVKGRFTISRDNAKNNVYLQMNSLKPEDTAVYYCAATRYYSWGSRGGYWGQGTQVSVSS", "polyreactivity (PSR sort gate)": "high polyreactivity"}
{"sequence": "QDQLVESGGGLVHAGGSLRLSCAASGSTFQYYVMGWYRQAPGKERELVAAITWSGGSTYYADSVKGRFTISRDNAKNTVYLQMNSLKPEDTAVYYCKAASGPDFEYEYWGEGTQVTVSS", "polyreactivity (PSR sort gate)": "low polyreactivity"}
{"sequence": "QDQLVESGGGLVHAGGSLRLSCVPPDSSSLSMLWDGIDRRLGKKGSWLPELTSRGVGTYYADSVKGRFTISRDNAKNPVYLQMNSLKPEDTAVYYCNARYEVFYRYDYWGQGTQVTVSS", "polyreactivity (PSR sort gate)": "low polyreactivity"}
{"sequence": "QDQLVESGGGLVLSGGRLRLSCAASGSNFSFYAMGWYRQAPGKERELVAGIRWRGGTSTFYADSVKWRFTISRDNAKNTVYLQMNSLKPEDTAVYYCAAKRRTGGNGYWGQGTQVTVSS", "polyreactivity (PSR sort gate)": "high polyreactivity"}
{"sequence": "QDQLVESGGGLVQAGASLRLSCAASGFIFSYYAMGWYRQAPGKERELVAAITWSGSSTYYADSVKGRFTISRDNAKNTVYLQMNSLKPEDTAVYYCPASSGGFRHYYYTYNYWGQGTQVTVSS", "polyreactivity (PSR sort gate)": "high polyreactivity"}
{"sequence": "QDQLVESGGGLVQAGCSLRLSCAASGLIFGWYAMGWYRQAPGKERELVASISRSGGSTYYADSVKGRFTISRDNAKNTVYLQMNSLITEDTAVYYCAALNYVFRLTYGYDYWGQGTQVTVSS", "polyreactivity (PSR sort gate)": "high polyreactivity"}
{"sequence": "QDQLVESGGGLVQAGCSLRLSCAASGRTFTYYAMGWYRQAPGKERELVAALSKRGGTTYYADSVKVRFSMSRDNAKNTDYLKMNSLKAVDTAVYYCATEGNLRTAGYAYDHYYWGQGTQVTVSS", "polyreactivity (PSR sort gate)": "high polyreactivity"}
{"sequence": "QDQLVESGGGLVQAGCSLRLTCAASGSTFSYYAMGWYRQAPGKERELVADISWSGGSTYYADSVKGRFTISRDNAKNTVYLQMNSLKAAHTAVYYCAARGGSVLRYGKYYYWGQGTQVTVSS", "polyreactivity (PSR sort gate)": "low polyreactivity"}
{"sequence": "QDQLVESGGGLVQAGDSLRLSCAASGIILLSYAMGWYRQAPGKERELVAAITSGGGTNYADSVKGRFTISRDNAKNTVYLQMNSLKPEDTAVYYCAVGAYAGLYYYWGQGTQVTVSS", "polyreactivity (PSR sort gate)": "low polyreactivity"}
{"sequence": "QDQLVESGGGLVQAGGIHRLICDSSGFIFWDNAMGCSRQAPGKEREFVAAISQRCTRTYYADSVKGRFTISRDNAKKTVFFPLNSLKPEDTGVYYCNRGGWRQFDSWGQGTQVTVSS", "polyreactivity (PSR sort gate)": "high polyreactivity"}
{"sequence": "QDQLVESGGGLVQAGGILRLSCAASGRTFLPNAMGWYRQSPGKEREFVASINGDGTTYYADSVKGRFTISRDNAKNTVYLQMNSLKPEDTAVYYCAKDRDFSSPPTESGFDFWGQGTQVTVSS", "polyreactivity (PSR sort gate)": "low polyreactivity"}
{"sequence": "QDQLVESGGGLVQAGGRLRLSCAASGRTFYWNAMGWNRQAPGKEREMVAAITRGGSTTYADSVKGRFTISRDNAKNTVYLQMNSLKPEDTAVYYCNKVYSLWPGYRYDYWGQGTQVTVSS", "polyreactivity (PSR sort gate)": "high polyreactivity"}
{"sequence": "QDQLVESGGGLVQAGGRLRLSCAASGSIFLKYSMGWYRQAPGKVRELVAVISQSGGRTYYADSVKGRFTISRDNAKNTVYLQMNILKPEETAVYYCNVDISWLRRKFDYWGQGTQVTVSS", "polyreactivity (PSR sort gate)": "low polyreactivity"}
{"sequence": "QDQLVESGGGLVQAGGSLGLSCAASGLTFSYYAMAWYRQAPGKERELVAAIDYSGGTTYADSVKGRFTISRDNAKNTVYLQMNSLKPEDTAVYYCADAPDGWFASGDEYWGQGTQVTVSS", "polyreactivity (PSR sort gate)": "high polyreactivity"}
{"sequence": "QDQLVESGGGLVQAGGSLPLSCAASGFTYSSYAMGWYRHAPGKERELVATISRSGSTTYYADSVKGRFTISRDNAKNTVYFQMNSLKPEDTAVYYCAKAYYPGGYWGQGTQVTVSS", "polyreactivity (PSR sort gate)": "high polyreactivity"}
{"sequence": "QDQLVESGGGLVQAGGSLRISCAASGFTFDENAMGWYRQAPGINYSGASTYYADSVKGRFTISRDNAKNTVYLQMYSLKPEDTAVYYCAAEVVALMNYWGQGSQVTVSS", "polyreactivity (PSR sort gate)": "low polyreactivity"}
{"sequence": "QDQLVESGGGLVQAGGSLRISCDASGTTFQTYVMGWYRQAPGKERELVAAISSGGSTNYADSVKGRFTISRDNAKNTVYLQMNSLKPEDTAVYYCAKRWPYFRRGKDGYWGQGTQVTVSS", "polyreactivity (PSR sort gate)": "low polyreactivity"}
{"sequence": "QDQLVESGGGLVQAGGSLRLICAASGGIFLVYTMGWYRQAPGKERELVAAITSGGSTKYADSVKGRFTISRDNAKNTVYLQMNSLKPEDTAVYYCAAYRRSWRYPSVRYYKYDYWGQGTQVTVSS", "polyreactivity (PSR sort gate)": "high polyreactivity"}
{"sequence": "QDQLVESGGGLVQAGGSLRLICAASGNTLGYYAMVCYRQATGKERELVATISDDGTTYYADSVKGLFTISRDNAKNSVYLQMNSLKPEDTAVYYCATDGSAQYSMDYWGQGTQVTVSS", "polyreactivity (PSR sort gate)": "low polyreactivity"}
{"sequence": "QDQLVESGGGLVQAGGSLRLICAASGSILSGYAMGWYRQAPGKERELVAAITSGGDTNYADSVKGRFTISRDNAKNTVYLQMNSLKPEDTAVYYCNRRGDFRIAYYDPMDYWGQGTQVTVSS", "polyreactivity (PSR sort gate)": "low polyreactivity"}
{"sequence": "QDQLVESGGGLVQAGGSLRLICAASGSTFDSYAMGWYRQAPGKERELVAAITRSVGSTYYADSVKGRFTISRDNAKYTVYLLMKSLKPEDTAVYYCAARGEWAIYVEFDYWGQGTQVTVSS", "polyreactivity (PSR sort gate)": "low polyreactivity"}
{"sequence": "QDQLVESGGGLVQAGGSLRLICAASGSTFEYNAMGWSRHAPGKERELVASSTNYADSVKGRFTISRDNAKNTVYLQMNSLIPEDTAVYYCAREHGVNRNHDYWGQGTQVTVSS", "polyreactivity (PSR sort gate)": "low polyreactivity"}
{"sequence": "QDQLVESGGGLVQAGGSLRLICASSGSNFESNTMGWYRQAPGKERELLAAINWSGGRTYYADSVKGRFSISRDNAKNTVYLQINSLKPEDTAVYYCATGTYSDYKLGQQLWGRYNYWGQGTQVSVSS", "polyreactivity (PSR sort gate)": "high polyreactivity"}
{"sequence": "QDQLVESGGGLVQAGGSLRLISAASGSTFRKYAMGWYRQAPGKEREFVAASTKRGGSTYYADSVKGRFTISRDNAKNTVYLLLNSLKPEDTAVYYCAAYKQDIGYYWGQGTQVTVSS", "polyreactivity (PSR sort gate)": "high polyreactivity"}
{"sequence": "QDQLVESGGGLVQAGGSLRLSCAASGATYRNNAMGWYRQAPGKERELVAAISRGGGSTYYADSVNGRFTISRDNAKNNVYLQMNSLKPEDTAVYYCARRPTGIYDYWGQGTQVTVSS", "polyreactivity (PSR sort gate)": "high polyreactivity"}
{"sequence": "QDQLVESGGGLVQAGGSLRLSCAASGFIFDTYAMGWYRQAPGKERELVAVISSGGSTYYADSVKGRFTISRDNAKNTVYLQMNSLKPEDTAVYYCAADSGYLGIYGDEYSWGQGTQVTVSS", "polyreactivity (PSR sort gate)": "low polyreactivity"}
{"sequence": "QDQLVESGGGLVQAGGSLRLSCAASGFIFWRNTMGWYRQAPGKERELVAVITRGGSTYYADSVKGRFTISRDNAKNTVYLQMNSLKPEDTAVYYCAALNDYYKTFSGYDYWGQGTQVTVSS", "polyreactivity (PSR sort gate)": "low polyreactivity"}
{"sequence": "QDQLVESGGGLVQAGGSLRLSCAASGFTFAGYAMGWYRQAPGKERELVAAITYSGGRTYYADSVKGRFTISRDNAKNTVYLQMNSLKPEDTAVYYCAARNYRYPGRYVYWGQGTQVTVSS", "polyreactivity (PSR sort gate)": "high polyreactivity"}
{"sequence": "QDQLVESGGGLVQAGGSLRLSCAASGFTFNIYAMGWYRQAPGKERELVAAISWSGGRTNYADSVKGRFTISRDNAKKTVYLQMNSLKPEATAVYYCAVRYKSWYGFNYWGQGTQVTVSS", "polyreactivity (PSR sort gate)": "high polyreactivity"}
{"sequence": "QDQLVESGGGLVQAGGSLRLSCAASGFTFNWKDMGWYRQAPGKERELVAAISGGASTYYADSVKGRFTISRDNAKNTVYLQMNSLKPEDTAVYYCAADLDEWGYLFDYWGQGTQVTVSS", "polyreactivity (PSR sort gate)": "low polyreactivity"}
{"sequence": "QDQLVESGGGLVQAGGSLRLSCAASGFTFRRYAMGWYRQAPGKERELVAAISYTGGITYYADSVKGRFTISRDNAKNTVYLQMNSLKPEDTAVYYCAAESVWTWDYTTAGMDYWGQGTQVTVSS", "polyreactivity (PSR sort gate)": "high polyreactivity"}
{"sequence": "QDQLVESGGGLVQAGGSLRLSCAASGFTFVYNAMGWYRQAPGKERELVAAITSGGNTYYADSVKGRFTISRDNAKNTVYLQMNSLKPEDTAVYYCAADRFTVRMDYWGQGTQVTLSS", "polyreactivity (PSR sort gate)": "high polyreactivity"}
{"sequence": "QDQLVESGGGLVQAGGSLRLSCAASGFTFWEYAMGWYRHAPGKERELVAAISRGTSTYYADSVKGRFTISRDNAKNTVYLQMNSLKPEDTAVYYCASAPSYYPARHGYWGQGTQVTVSS", "polyreactivity (PSR sort gate)": "low polyreactivity"}
{"sequence": "QDQLVESGGGLVQAGGSLRLSCAASGFTFYAYSMGWYRQAPGKERELVAAITYIGSTYYADSVKGRFTISRDNAKNTVYLQMNSLKPEDTAVYYCAAVKVFLGLGYDYWGQGTQVTVSS", "polyreactivity (PSR sort gate)": "low polyreactivity"}
{"sequence": "QDQLVESGGGLVQAGGSLRLSCAASGFTFYLYTMGSYRQAPGKERELVATITSDGGTNYADSVKGRFTISRDNAKNTVYLQMNSLKPEDTAVYFCNAASRRGSRKQAKYDYWGQGTQVTVSS", "polyreactivity (PSR sort gate)": "low polyreactivity"}
{"sequence": "QDQLVESGGGLVQAGGSLRLSCAASGFTFYSYAMGWYRQAPGKERELVAAISYRGGSTYYADSVKGRFTISRDNAKNTVYFQMNSLKPEDTAVYYCAARSPSAAYGSYGVYYWGQGTQVTVSS", "polyreactivity (PSR sort gate)": "high polyreactivity"}
{"sequence": "QDQLVESGGGLVQAGGSLRLSCAASGFTLHVYAMGWYRQAPGKERELVAAISTGGNTNYGDSVKGRFTISRDNAKNTVYLQMNSLKPEDTAVYYCNARYTSRRSRRPYYYWGQGTQVTVSS", "polyreactivity (PSR sort gate)": "high polyreactivity"}
{"sequence": "QDQLVESGGGLVQAGGSLRLSCAASGGIFKSNTMGWDRTAHGKERELVAAITYSDGGTYYADSVKGRFTISRDNAKNTVYLQMNSLTPEDTAVYYCAVDYDTFYWHHYPGEIDHWGQGTQVNVSS", "polyreactivity (PSR sort gate)": "low polyreactivity"}
{"sequence": "QDQLVESGGGLVQAGGSLRLSCAASGGNFPPYDMGWYRQAPGKERDLVATISSDSTNYADSVKGRFTISRDNAKNTVYLQMNSLKPEDSAVYYCAVRFYWAPGGGEYDYWGQGTQVTVSS", "polyreactivity (PSR sort gate)": "low polyreactivity"}
{"sequence": "QDQLVESGGGLVQAGGSLRLSCAASGIIFDDNTMGWYRQAPGKERELVAAISSSGGSTYYADSVKGRFTISRDNAKNTVYLQMNSLKPEDTAVYYCAAAVYYTYPYIVYRNYPEFDYRGQGTQVTVSS", "polyreactivity (PSR sort gate)": "low polyreactivity"}
